The target of the series is GST-Msi1 (Homo sapiens, UniProt O43347 1-362). The experiment in a line: EMSA. As to conditions: protein: recombinant; tags: N-terminal GST (pGEX 5X-2); label: fluorescein-12-UTP. Background: Mobility shift assays separate free from complexed probe on a gel.

These results are taken from paper PMC13036491, “RNA binding protein Musashi1 interacts with the viral genomic RNA and restricts SARS-CoV-2 infection by repressing translation”.

Sequence of GST-Msi1 (O43347 whole entry): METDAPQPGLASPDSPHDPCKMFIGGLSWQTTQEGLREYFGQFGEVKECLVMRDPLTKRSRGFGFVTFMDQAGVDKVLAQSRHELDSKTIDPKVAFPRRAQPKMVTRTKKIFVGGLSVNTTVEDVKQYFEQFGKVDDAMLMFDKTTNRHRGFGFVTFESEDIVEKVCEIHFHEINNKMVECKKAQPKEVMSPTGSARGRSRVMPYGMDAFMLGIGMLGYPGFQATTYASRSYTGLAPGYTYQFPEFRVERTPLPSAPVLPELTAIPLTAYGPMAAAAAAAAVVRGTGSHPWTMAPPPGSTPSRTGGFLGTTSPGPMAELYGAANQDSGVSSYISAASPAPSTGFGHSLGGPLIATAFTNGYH

B1: M2 mutant RNA (ssRNA)
RNA: GGGAUUUUAGCCGUGCUAUCCCCA
On to B1, for which the binding result is “no binding”.

B2: M1 mutant RNA (ssRNA)
RNA: GGGUAGCACAAGCCGAUGCCGUUAA
Regarding B2, the binding result is listed as “no binding”.
